Experiment [1] deals with T1, HLA-B*0702 molecule on HLA-B*0702 transfected TAP deficient T2 cells (T2-B7) (human). In words: MHC stabilization assay on T2-B7 cells, flow cytometry with ME.1; ratio of concentration giving 20% of maximal binding against reference peptide R10TV. The note with it: remark: other sources report otherwise.
For experiment [2], the target named is T1, HLA-B*0702 molecule on HLA-B*0702 …. In words: MHC stabilization assay on T2-B7 cells, ME-1 staining; ratio of concentration inducing 20% of HLA-B*0702 expression against reference peptide CMV265-274. The note with it: remark: other sources report otherwise.

With RPAEEATSL [hTERT peptide p277 (…, residues 277-285)], the relative avidity in experiment [1] stood at 4.7.

Take DPRRLVQLL [hTERT peptide p444 (…, residues 444-452)]: the RA (relative affinity) in experiment [2] was above 10.

Source of the values: patent US20090175892A1.
